Measurements: patent US20260263614A1, “ANTIBODY DRUG CONJUGATES THAT BIND CDCP1 AND USES THEREOF” (Pheon Therapeutics Ltd, priority 2022, published 2026)
Like-named read-outs stand apart in the source and are kept apart here.

Legend:
[1] = test system: HexA and MS1 DNA fragments; assay: DNA footprinting; type: binding
Protocol: Footprinting reactions were performed as using previously described methods using the DNA fragments HexA and HexB, which together contain all 64 symmetrical hexanucleotide sequences, and MS1 that contains all possible […] tetranucleotide sequences. The DNA fragments were obtained by cutting the parent plasmids with HindIII and SacI (for HexA and MS1) or EcoRI and PstI (for HexB), and were labelled at the 3′-end of the HindIII or EcoRI sites with [α-^32P]dATP using reverse transcriptase or exo-Klenow fragment. After gel purification, the radiolabelled DNA was dissolved in 10 mM Tris-HCl pH 7.5 containing 0.1 mM EDTA, at a concentration of about 10 c.p.s per μL as determined on a hand held Geiger counter. 1.5 μL of radiolabelled DNA was mixed with 1.5 μL ligand that had been freshly diluted in 10 mM Tris-HCl pH 7.5, containing 10 mM NaCl. The complexes were left to equilibrate for at least 12 hours before digesting with 2 μL DNase I (final concentration about 0.01 units/mL). The reactions were stopped after 1 minute by adding 4 μL of formamide containing 10 mM EDTA and bromophenol blue (0.1% w/v). The samples were then heated at 100° C. for 3 minutes before loading onto 8% denaturing polyacrylamide gels containing 8 M urea. Gels were fixed in 10% acetic acid, transferred to 3 MM paper, dried and exposed to a phosphor screen overnight, before analysing with a Typhoon phosphorimager
The DNA sequence selectivity profile of the molecules was investigated using a modification of a previously established DNA footprinting assay. Following an overnight incubation of the ligand-DNA complexes, the mixture was mixed with strand separation buffer containing 10 mM EDTA, 10 mM NaOH, 0.1% bromophenol blue, 80% formamide and incubated at 100° C. for 3 min. The mixture was then immediately cooled on ice and run on an 8% denaturing gel. […] The possible adducts formed within the HexA sequences are shown in FIGS. 20 and 21, respectively.

[2] = test system: linear double-stranded TyrT fragment; assay: DNA cross-linking assay; type: biochemical
Protocol: The preparation of the TyrT DNA fragment has been previously described. Briefly, the sequence which had been cloned into the BamHI site of pUC18 was obtained by cutting with HindIII and EcoRI. Radiolabelled DNA fragments were prepared by filling in the 3′-end of the HindIII site with [α-^32P]dATP using Klenow DNA polymerase (exo-).
The radiolabelled DNA fragment was separated from the remainder of the plasmid DNA on a 6% non-denaturing polyacrylamide gel. The gel (20 cm long, 0.3 mm thick) was run at 400 V in 1×TBE running buffer for about 1-2 h, until the bromophenol blue had run most of the way down the gel. The glass plates were separated and the position of the labelled DNA fragment was established by short (1 min) exposure to an X-ray film. The relevant band was then cut from the gel and the radiolabelled DNA eluted by adding 300 μL 10 mM Tris-HCl, pH 7.5 containing 0.1 mM EDTA and gently agitating overnight at room temperature. The eluted DNA was finally precipitated with ethanol and re-suspended in a suitable volume of 10 mM Tris-HCl, pH 7.5 containing 0.1 mM EDTA buffer so as to give at least 10 counts per second/μL on a hand-held Geiger counter. With fresh plasmid and α-^32P-dATP this process typically generated about 150 μL of radiolabelled fragment DNA. The absolute concentration of the DNA is not important, and it is typically lower than 10 nM.
Radiolabelled DNA ([…]) was mixed with 1.5 μL ligand solution of various concentrations (10 μM-10 nM) and incubated overnight at 37° C.
After overnight incubation, the samples were mixed with 7 μL loading solution (80% formamide containing 10 mM EDTA, 10 mM NaOH, 0.1% bromophenol blue) and incubated at 65° C. for 5 min. Control 1 (C1) for native double-stranded DNA consisted of 1.5 μL labelled DNA, 1.5 μL 10 mM Tris-HCl, pH 7.5 containing 0.1 mM EDTA and 7 μL 1× loading dye. […]
The ability of 26 to cross-link DNA was evaluated using an assay involving a linear double-stranded TyrT fragment (FIG. 17). […]

[3] = Comparative repeat-dose rat toxicity study; type: in vivo; conditions: DAR 8 on a Trastuzumab backbone; IV once every 3 weeks, two doses, 20 or 60 mg/kg
[4] = target: T1, huCDCP1(F30-T667 Q525)-8×His_T3 (human, UniProt Q9H5V8 30-667); assay: SPR, huCDCP1(F30-T667 Q525)-8×His_T3 as analyte; mAb lot T14
T1 construct: The construct name gives the limits F30-T667 and Q525; also called recombinant CDCP1 ECD; CDCP1 ECD

[5] = target: T2, CDCP1 on antigen-positive cells (A427; CDCP1+ cells MDA-MB-468, PC3, DU145) (Homo sapiens (Human), UniProt Q9H5V8 30-836, On the FIG. 45 cell lines, part of the CDCP1 is proteolytically cleaved in the extracellular domain; the cleavage site is not stated. The uncleaved mature protein is given.); assay: binding to CDCP1+ cells (cell line not given), % Maximum against log concentration, fitted curve
T2 construct: also called the antigen; antigen positive cell-line (A427)

[6] = target: T2, CDCP1 on antigen-positive cells (A427; …); assay: as above; remark: listed apart in the source
[7] = target: T2, CDCP1 on antigen-positive cells (A427; …); assay: flow cytometry on MDA-MB-468 cells (CDCP1+ cleavage), channel R712-A

Molecule	Kd [4] [nM]	koff [4] [s⁻¹]	kon [4] [M⁻¹ s⁻¹]	other results
C=CCOC(=O)N1c2cc(OCCCC(=O)Nc3cc(C(=O)Nc4ccc(NC(=O)C(F)(F)F)cc4)n(C)c3)c(OC)cc2C(=O)N2CCCC[C@H]2C1OC1CCCCO1 (stereo partly drawn) [Compound 17, Allyl (6aS)-2-methoxy-3-(4-((1-methyl-5-((4-(2,2,2-trifluoroacetamido)phenyl)carbamoyl)-1H-pyrrol-3-yl)amino)-4-oxobutoxy)-12-oxo-6-((tetrahydro-2H-pyran-2-yl)oxy)-6,6a,7,8,9,10-hexahydrobenzo[e]pyrido[1,2-a][1,4]diazepine-5(12H)-carboxylate]				DNA-binding site (X any base, W adenine or thymine) [1]: XGXWWWW
COc1cc2c(cc1OCCCC(=O)Nc1cc(C(=O)Nc3ccc(N)cc3)n(C)c1)N=C[C@@H]1CCCCN1C2=O [Compound 19, (S)—N-(4-Aminophenyl)-4-(4-((2-methoxy-12-oxo-6a,7,8,9,10,12-hexahydrobenzo[e]pyrido[1,2-a][1,4]diazepin-3-yl)oxy)butanamido)-1-methyl-1H-pyrrol-2-carboxamide]				ability to cross-link DNA (conclusion) [2]: incapable of cross-linking DNA
COc1cc2c(cc1OCCCC(=O)Nc1cc(C(=O)Nc3ccc(-c4cc(C(=O)Nc5ccc(N)cc5)n(C)c4)cc3)n(C)c1)N=C[C@@H]1CCCCN1C2=O [Compound 26, (S)—N-(4-aminophenyl)-4-(4-(4-(4-((2-methoxy-12-oxo-6a,7,8,9,10,12-hexahydrobenzo[e]pyrido[1,2-a][1,4]diazepin-3-yl)oxy)butanamido)-1-methyl-1H-pyrrol-2-carboxamido)phenyl)-1-methyl-1H-pyrrol-2-carboxamide]				DNA stabilisation and sequence selectivity (biophysical summary) [1]: effectively stabilises DNA with a high degree of sequence-specificity; DNA-binding site (X any base, W adenine or thymine) [1]: XGXWWWW; footprints (preferred sites) on HexA ([1]; overnight incubation of ligand-DNA complexes): only five preferred sites; ability to cross-link DNA (conclusion) [2]: incapable of cross-linking DNA; DNA interstrand cross-links ([2]; six concentrations, overnight incubation at 37° C., denaturing gel): not detectable at any concentration
CC[C@@]1(O)C(=O)OCc2c1cc1n(c2=O)Cc2c-1nc1cc(F)c(C)c3c1c2[C@@H](NC(=O)CO)CC3 [Dxd, reference compound]				tolerability [3]: well tolerated
ADC2 (CDCP1 mAb conjugated to compound 20, DAR of 4) (antibody, IgG1, V domains shown, compound 20 (maleimide-Val-Ala-PDD linker-payload) conjugated stochastically to reduced cysteines of the IgG1, average DAR 4.2; sites not stated) VH: EVQLLESGGGLVQPGGSLRLSCAASGFTFSNYAMNWVRQAPGKGLEWVSAISGGGGSTYYADSVKGRFTISRDNSKNTLYLQMNSLRAEDTAVYYCAKESITMVRGVMDYYGMDVWGQGTTVTVSS VL: DIQLTQSPSFLSASVGDRVTITCRASQGISSYLAWYQQKPGKAPKLLIYAASTLQGGVPSRFSGSGSGTEFTLTISSLQPEDFATYYCQHLNRFPRTFGQGTKVEIK	0.635	0.000374	589000	
ADC3 (CDCP1 mAb conjugated to compound 30, DAR of 8) (antibody, IgG1, V domains shown, compound 30 (Mal-amido-PEG8-Val-Ala-exatecan) conjugated stochastically to reduced cysteines of the IgG1, average DAR 7.3 (called DAR of 8); sites not stated, also called CDCP1-targeted exatecan conjugate) VH: EVQLLESGGGLVQPGGSLRLSCAASGFTFSNYAMNWVRQAPGKGLEWVSAISGGGGSTYYADSVKGRFTISRDNSKNTLYLQMNSLRAEDTAVYYCAKESITMVRGVMDYYGMDVWGQGTTVTVSS VL: DIQLTQSPSFLSASVGDRVTITCRASQGISSYLAWYQQKPGKAPKLLIYAASTLQGGVPSRFSGSGSGTEFTLTISSLQPEDFATYYCQHLNRFPRTFGQGTKVEIK	0.57	0.000422	740000	EC50 [6]: 0.16 µg/mL
mAbs-CDCPA1 Sequence 2 (anti-CDCP1 antibody, Sequence 2) (antibody, V domains shown) VH: QVQLVQSGAEVKKPGSSVKVSCKASGGTFSSYAMSWVRQAPGQGLEWMGGIIPILGTTNYAQKFQGRVTITADKSTSTAYMELSSLRSEDTAVYYCAREGLYAFDIWGQGTMVTVSS VL: DIQMTQSPSSLSASVGDRVTITCRASQSISSYLNWYQQKPGKAPKFLIYVASSLQSGVPSRFSGRGSGTDFTLTISSLQPEDFATYYCQQSYSTPWTFGQGTKVEIK				binding result [7]: binds

The next lines start with results.

Kd [4] [nM]	koff [4] [s⁻¹]	kon [4] [M⁻¹ s⁻¹]	Molecule	other results
0.604	0.00038	629000	CDCP1-vcMMAE (DAR of 4) (antibody, V domains shown, vc-MMAE (Val-Cit linker, monomethyl auristatin E) conjugated to the antibody, DAR of 4; sites not stated, also called CDCP1-MMAE) VH: EVQLLESGGGLVQPGGSLRLSCAASGFTFSNYAMNWVRQAPGKGLEWVSAISGGGGSTYYADSVKGRFTISRDNSKNTLYLQMNSLRAEDTAVYYCAKESITMVRGVMDYYGMDVWGQGTTVTVSS VL: DIQLTQSPSFLSASVGDRVTITCRASQGISSYLAWYQQKPGKAPKLLIYAASTLQGGVPSRFSGSGSGTEFTLTISSLQPEDFATYYCQHLNRFPRTFGQGTKVEIK	EC50 [5]: 0.384 µg/mL
0.604	0.000401	663000	ADC4 (CDCP1 mAb conjugated to compound 30, DAR of 4) (antibody, IgG1, V domains shown, compound 30 (Mal-amido-PEG8-Val-Ala-exatecan) conjugated stochastically to reduced cysteines of the IgG1, average DAR 4; sites not stated) VH: EVQLLESGGGLVQPGGSLRLSCAASGFTFSNYAMNWVRQAPGKGLEWVSAISGGGGSTYYADSVKGRFTISRDNSKNTLYLQMNSLRAEDTAVYYCAKESITMVRGVMDYYGMDVWGQGTTVTVSS VL: DIQLTQSPSFLSASVGDRVTITCRASQGISSYLAWYQQKPGKAPKLLIYAASTLQGGVPSRFSGSGSGTEFTLTISSLQPEDFATYYCQHLNRFPRTFGQGTKVEIK	
